Patent publication US20120308566A1 (published 2012)

Assays:
[1] = biological target: Human IL-17RA full-length expressed on the surface of cells (human, UniProt Q96F46 33-866); assay: cell-based or functional assay
chimera L = biological target: T1, chimera L; assay: Bio-Plex titration on His-captured chimera; bold cell = binding criterion not met
T1 construct: also called Construct L; B+F
Method: Twelve bead codes of pentaHis-coated beads (Qiagen, Valencia, Calif.; see www1.qiagen.com) were used to capture histidine-tagged protein. The 12 bead codes allowed the multiplexing of 11 chimeric and the wild type human IL-17RA.
To prepare the beads, 100 ul of wild-type IL-17RA supernatant from transient expression culture and 100 ul of 2.5 ug/ml chimeric protein were bound to penta-His-coated beads overnight at 4° C. or 2 hours at room temperature with vigorous shaking. The beads were washed as per the manufacturer's protocol and the 12 bead set was pooled and aliquoted into 2 or 3 columns of a 96-well filter plate (Millipore, Billerica, Mass., product #MSBVN1250) for duplicate or triplicate assay points, respectively. 100 ul anti-IL-17RA antibodies in 4-fold dilutions were added to the wells, incubated for 1 hour at room temperature, and washed. […] Beads were resuspended in 1% BSA, shaken for 3 minutes, and read on the Bio-Plex workstation. Antibody binding to IL-17RA chimeric protein was compared to antibody binding to the human IL-17RA wild-type from the same pool. A titration of antibody over approximately a 5 log scale was performed. Median Fluorescence Intensity (MFI) of chimeric proteins was graphed as a percent of maximum wild-type human IL-17RA signal.

huIL-17RA-FLAG-polyHis = biological target: T2, huIL-17RA-FLAG-polyHis (human, UniProt Q96F46 33-320); assay: multiplexed Luminex binning
T2 construct: also called wild-type IL-17RA-FLAG-polyHis; HuIL-17RA-Flag-pHis
Method: Cross-competition studies were performed to determine IL-17RA binding characteristics of exemplary IL-17RA antibodies. […] The method employed the Bio-Plex Workstation and software (BioRad, Hercules, Calif.), as well as reagents from Luminex® Corp. (Austin, Tex.). The manufacturers' basic protocols were followed except where noted below (see www.bio-rad.com and www.luminexcorp.com for details). […] The mouse-anti-human IgG coating was evaluated and the beads quantified by FACS. Each bead code was separately incubated with 10 ul of anti-IL-17RA antibody for 1 hour at room temperature and then washed. The beads were pooled and then dispensed to a 96-well filter plate (Millipore, Billerica, Mass., product #MSBVN1250). […] The PE-tagged monovalent antibody will detect the presence of the second mAb added to the well, but not the first mAb captured by the monovalent mouse-anti-human IgG antibody. Beads were resuspended in 120 ul PBSAT and at least 100 events/bead code were collected on the Bio-Plex workstation as per the manufacturer's recommended protocol.

B1: AMH18/AML18 (antibody, IgG2, V domains shown)
VH: QVQLVQSGAEVKKPGASVKVSCKASGYSFTDYYMHWVRQAPGQGLEWMGWMHPNSGGTDLAQRFQGRVTMTRDTSISTAYMELSRLRSDDTAVYYCARGGYCSTLSCSFYWYFDLWGRGTLVTVSS
VL: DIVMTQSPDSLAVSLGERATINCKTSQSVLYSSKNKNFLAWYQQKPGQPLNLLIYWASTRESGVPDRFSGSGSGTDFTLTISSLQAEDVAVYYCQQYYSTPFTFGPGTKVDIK
notes: human monoclonal antibody from IgG2 XenoMouse mice; also called AM-18
IL-17A/HFF bioassay IC50; 14. Subclone of (AMH18/AML18) [1]: 0.44 nM | IL-17A/HFF bioassay IC50; 15. Subclone of (AMH18/AML18) [1]: 0.4 nM | IL-17A/HFF bioassay IC50; 16. Subclone of (AMH18/AML18) [1]: 0.17 nM | EC50 entry; zero = binding ablated (chimera L): 0 nM

B2: AMH21/AML21 (antibody, IgG2, V domains shown)
VH: EVQLVESGGGSVQPGGSLRLSCAASGFTFSSYSMNWVRQAPGKGLEWVSIISSRSSIIHYADSVKGRFTISRDNAKNSLYLQMNSLRDEDTAVYYCARPKVGGGMDVWGQGTTVTVSS
VL: DIQMTQSPSSLSASVGDRVTITCRASQGISNYLAWYQQKPGKFPELLIYAASTLQSGVPSRFSGSGSGTDFTLTISSLQPEDVATYYCQKYNRAPFTFGPGTKVDIK
IL-17A/HFF bioassay IC50; 4. Subclone of (AMH21/AML21) [1]: 2.3 nM | IL-17A/HFF bioassay IC50; 5. Subclone of (AMH21/AML21) [1]: 3.1 nM | IL-17A/HFF bioassay IC50; 6. Subclone of (AMH21/AML21) [1]: 3.3 nM

B3: AMH20/AML20 (antibody, IgG2, V domains shown)
VH: EVQLVESGGGLVQPGGSLRLSCAASGFTFSSYSMNWVRQAPGKGLEWVSFISARSSTIYYADSVKGRFTISRDNAKNSLYLQMNSLRDEDTAVYYCARPKVGGGMDVWGQGTTVTVSS
VL: DIQMTQSPSSLSASVGDRVTITCRASQGISNYLAWYQQKPGKFPELLIYAASTLQSGVPSRFSGSGSGTDFTLTISSLQPEDVATYYCQKYNRAPFTFGPGTKVDIK
IL-17A/HFF bioassay IC50; 7. Subclone of (AMH20/AML20) [1]: 8.1 nM | IL-17A/HFF bioassay IC50; 8. Subclone of (AMH20/AML20) [1]: 6.6 nM | IL-17A/HFF bioassay IC50; 9. Subclone of (AMH20/AML20) [1]: 6.7 nM

B4: AMH13/AML13 (antibody, IgG2, V domains shown)
VH: QVQLVESGGGVVQPGRSLRLSCAASGFTFSSYGMQWVRQAPGKGLEWVAVIWYDGNKKYYADSVKGRFTISRDNSKNTLYLQMNSLRAEDTAVYYCARGRVRDYYYGMDVWGQGTTVTVSS
VL: DIVMTQTPLSLSVTPGQPASIACKSSQSLLHSDGKTYLYWYLQKPGQPPQLLIYEVSTRFSGVPDRFSGSGSGTDFTLKISRVEAEDVGVFYCMQSIQLPLTFGGGTKVEIK
IL-17A/HFF bioassay IC50; 13. Subclone of (AMH13/AML13) [1]: > 10 nM

B5: AMH7/AML7 (antibody, IgG2, V domains shown)
VH: QVQLVQSGAEVKKPGASVKVSCKASGYTLTRYGISWVRQAPGQGLEWMGWISAYNGNTNYAQKLQGRVTMTTDTSTSTAYMELRSLRSDDTAVYYCARRDYDILTGYYNGFDPWGQGTLVTVSS
VL: DIQMTQSPSSLSASVGDRVTITCRASQGIRNDLGWYQQKPGKAPKRLIYAASSLQSGVPSRFSGSGSGTEFTLTISSLQPEDFATYYCLQHKSYPLTFGGGTKVEIK
notes: human monoclonal antibody from IgG2 XenoMouse mice; also called AM-7
binding result (huIL-17RA-FLAG-polyHis): binds

B6: AMH6/AML6 (antibody, IgG2, V domains shown)
VH: QVQLVQSGAEVKKPGASVKVSCKASGYTLTRYGISWVRQAPGQGLEWMGWISAYNGNTNYAQKLQGRVTMTTDTSTSTAYMELRSLRSDDTAVYYCARRDYDILTGYYNGFDPWGQGTLVTVSS
VL: DIQMTQSPSSLSASVGDRVTITCRASQGIRNDLGWYQQKPGKAPKRLIYAASSLQSGVPSRFSGSGSGTEFTLTISSLQPEDFATYYCLQHKSYPLTFGGGTKVEIK
notes: human monoclonal antibody from IgG2 XenoMouse mice; also called AM-6
binding result (huIL-17RA-FLAG-polyHis): binds

B7: AMH8/AML8 (antibody, IgG2, V domains shown)
VH: QVQLVQSGAEVKKPGASVKVSCKASGNTFTGYGISWVRQAPGQGLEWMGWISAYNGNTNYAQNLQGRVTMTTDTSTSTAYMELRSLRSDDTAVYYCARRDYDILTGYYNGFDPWGQGTLVTVSS
VL: DIQMTQSPSSLSASVGDRVTITCRASQGIRNDLGWYQQKPGKAPKRLIYAASSLQSGVPSRFSGSGSGTEFTLTISSLQPEDFATYYCLQHKSYPLTFGGGTKVEIK
notes: human monoclonal antibody from IgG2 XenoMouse mice; also called AM-8
binding result (huIL-17RA-FLAG-polyHis): binds

B8: AMH17/AML17 (antibody, V domains shown)
VH: QVQLVQSGAEVKKPGAAVKVSCKATGYTLTSYGISWVRQAPGQGLEWMGWISAYSGNTKYAQKLQGRVTMTTDTSTSTAYMELRSLRSDDTAVYYCARKQLVFDYWGQGTLVTVSS
VL: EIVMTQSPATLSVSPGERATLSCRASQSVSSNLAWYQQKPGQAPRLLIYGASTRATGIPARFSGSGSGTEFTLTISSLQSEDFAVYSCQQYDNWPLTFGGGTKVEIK
IL-17A/HFF bioassay IC50; 21. Subclone of (AMH17/AML17) [1]: 2.5 nM | IL-17A/HFF bioassay IC50; 22. Subclone of (AMH17/AML17) [1]: 5.3 nM | IL-17A/HFF bioassay IC50; 23. Subclone of (AMH17/AML17) [1]: 0.57 nM

B9: AMH12/AML12 (antibody, IgG2, V domains shown)
VH: QVQLVQSGAEVKKPGASVKVSCKASGYTLTSYGISWVRQAPGQGLEWMGWISTYKGNTNYAQKLQGRVTMTTDTSTSTAYMELRSLRSDDTAVYYCARKQLVFDYWGQGTLVTVSS
VL: EIVMTQSPATLSVSPGERATLSCRASQSISSSLAWYQQKPGQAPRLLIYGASTRATGIPARFSGSGSGTEFTLTISSLQSENFAVYYCQQYDNWPLTFGGGTKVEIK
IL-17A/HFF bioassay IC50; 17. Subclone of (AMH12/AML12) [1]: 3.5 nM | IL-17A/HFF bioassay IC50; 18. Subclone of (AMH12/AML12) [1]: 3.7 nM | IL-17A/HFF bioassay IC50; 20. Subclone of (AMH12/AML12) [1]: 5.5 nM

B10: AMH16/AML16 (antibody, IgG2, V domains shown)
VH: QVQLVQSGAEVKKPGASVKVSCKASGYTFTSYGISWVRQAPGQGLEWMGWISAYNGNTKYAQKLQGRVTMTTDTSTSTVYMELRSLRSDDTAVYYCARKQLVFDYWGQGTLVTVSS
VL: EIVMTQSPATLSVSPGERATLSCRASQSISTSLAWYQQKPGQAPRLLIYGTSTRATGIPARFSGSGSGTEFTLTISSLQSEDFAVYFCQQYDIWPLTFGGGTKVEIK
IL-17A/HFF bioassay IC50; 24. Subclone of (AMH16/AML16) [1]: 1.6 nM | IL-17A/HFF bioassay IC50; 25. Subclone of (AMH16/AML16) [1]: 2.3 nM | IL-17A/HFF bioassay IC50; 26. Subclone of (AMH16/AML16) [1]: 1.4 nM

B11: AMH19/AML19 (antibody, IgG2, V domains shown)
VH: QVQLVQSGAEVKKPGASVKVSCKASGYTLTSYGISWVRQAPGQGLEWMGWISAYSGNTKYAQKFQGRVTMTTDTSTSTAYMELRSLRSDDTAVYYCARRQLALDYWGQGTLVTVSS
VL: EIVMTQSPATLSVSPGERATLSCRASQSISSNLAWYQQKPGQAPRLLIYGASTRATGIPARFSDNGSGTEFTLTISSLQSEDFAVYFCQQYDTWPLTFGGGTKVEIK
IL-17A/HFF bioassay IC50; 10. Subclone of (AMH19/AML19) [1]: 0.22 nM | IL-17A/HFF bioassay IC50; 11. Subclone of (AMH19/AML19) [1]: 1.1 nM | IL-17A/HFF bioassay IC50; 12. Subclone of (AMH19/AML19) [1]: 0.5 nM

B12: AMH4/AML4 (antibody, IgG2, V domains shown)
VH: QVQLVESGGGVVQPGRSLRLSCAASGINFSSYGMHWVRQAPGKGLEWVAVIWYDGSNKHYADSVKGRFTISRDNSKNTLYLQMNSLRAEDTAVYYCARDTGVYWGQGTLVTVSS
VL: not shown
notes: human monoclonal antibody from IgG2 XenoMouse mice; also called AM-4
binding result (huIL-17RA-FLAG-polyHis): binds

B13: AMH10/AML10 (antibody, IgG2, V domains shown)
VH: QVQLQESGPGLVKPSQTLSLTCTVSGGSISSGGYYWSWIRQHPGKGLEWIGYIYFSGSAYYNPSLKSRVAISVDTSKNQFSLKLSSVTAADTAVYYCAREYYDSSGYPDAFDIWGQGTMVTVSS
VL: DIQMTQSPSSVSASVGDRVTITCRASQGIRSWLAWYQQKPGKAPKLLIFAASSLQSGVPSRFSGSGSGTEFTLTISSLQPEDFATYYCQQANNFPRTFGQGTKVEIK
notes: human monoclonal antibody from IgG2 XenoMouse mice; also called AM-10
binding result (huIL-17RA-FLAG-polyHis): binds
